Test results published in patent US20140056907A1 (Regeneron, published 2014).

T1: mouse ASIC1a (mouse, UniProt Q6NXK8 1-526)
T1 construct: whole, on cells; Expressed on stably transfected 3T3 cells (3T3/mASIC1a); also called mASIC1a
T1 sequence (looked up): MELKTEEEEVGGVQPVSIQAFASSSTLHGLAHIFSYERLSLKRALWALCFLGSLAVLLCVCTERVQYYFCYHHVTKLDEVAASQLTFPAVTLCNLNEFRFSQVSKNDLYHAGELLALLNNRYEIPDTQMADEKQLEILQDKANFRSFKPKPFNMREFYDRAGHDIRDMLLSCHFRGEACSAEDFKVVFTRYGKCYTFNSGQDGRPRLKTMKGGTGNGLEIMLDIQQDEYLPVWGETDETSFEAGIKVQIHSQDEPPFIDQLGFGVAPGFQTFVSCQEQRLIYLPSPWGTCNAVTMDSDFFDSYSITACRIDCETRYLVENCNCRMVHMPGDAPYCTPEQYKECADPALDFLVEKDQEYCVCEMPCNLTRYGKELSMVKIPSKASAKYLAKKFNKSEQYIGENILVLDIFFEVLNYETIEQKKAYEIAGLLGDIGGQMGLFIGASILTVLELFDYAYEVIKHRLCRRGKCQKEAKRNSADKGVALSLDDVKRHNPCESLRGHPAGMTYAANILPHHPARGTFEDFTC

T2: human ASIC1 (human, UniProt P78348 1-528)
T2 sequence: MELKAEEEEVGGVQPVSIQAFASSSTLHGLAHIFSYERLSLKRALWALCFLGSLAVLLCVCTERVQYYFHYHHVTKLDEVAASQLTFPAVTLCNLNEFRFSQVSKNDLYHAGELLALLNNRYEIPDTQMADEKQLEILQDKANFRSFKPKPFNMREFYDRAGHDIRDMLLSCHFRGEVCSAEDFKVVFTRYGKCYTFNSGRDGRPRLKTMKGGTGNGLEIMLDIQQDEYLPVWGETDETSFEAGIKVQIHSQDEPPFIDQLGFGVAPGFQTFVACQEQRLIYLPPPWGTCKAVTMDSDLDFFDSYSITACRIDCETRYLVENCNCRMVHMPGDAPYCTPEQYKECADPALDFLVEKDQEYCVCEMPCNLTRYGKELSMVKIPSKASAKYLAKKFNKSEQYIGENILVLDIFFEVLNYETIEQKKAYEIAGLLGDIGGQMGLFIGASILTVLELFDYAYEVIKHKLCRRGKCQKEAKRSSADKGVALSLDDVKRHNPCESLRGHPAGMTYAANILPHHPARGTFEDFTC


What was measured:
mouse ASIC1a = biological target: T1, mouse ASIC1a; assay: FACS, 3T3/mASIC1a cells
Excerpt: To further characterize anti-ASIC1 antibodies, their ability to bind either (a) a mouse fibroblast 3T3 cell line stably transfected to overexpress full length human ASIC1 (3T3/hASIC1; amino acids 1-528 of NCBI accession number NP_{—}001086.2 [SEQ ID NO:401]), (b) a 3T3 cell line stably transfected to over express full length mouse ASIC1a (3T3/mASIC1a; amino acids 1-526 of NCBI accession number NP_{—}033727), or (c) a ND7 cell line (ECACC, #92090903) that is a fusion cell line of mouse neuroblastoma and rat dorsal root ganglia that endogenously expresses rat ASIC1, was determined using flow cytometry (FACS). ND7 cells were differentiated by replacing the culture media with low-serum media (0.5% FBS) containing 1 mM dibutyryl-cAMP (Cat. No. sc-201567A, Santa Cruz Biotechnology, Inc., Santa Cruz, Calif.). FACS binding was tested for some antibodies on both undifferentiated ND7 cells and differentiated ND7 cells.
(§1) To perform the FACS binding experiments, adherent cells were collected using 1 mM EDTA in PBS, then washed, and re-suspended in cold PBS containing 5% FBS. For each binding experiment, each anti-ASIC1 antibody (at final concentrations of 10 nM of purified antibodies or 3.3 nM for antibody supernatants for binding to 3T3/hASIC1 cells and 5 nM for binding to 3T3/mASIC1a or ND7 cells) was added to 250,000 cells in 500 μL of PBS with 5% FBS. After incubation for 20 minutes at room temperature, a secondary antibody which recognizes human Fc (Cat. No. 109-136-098, Jackson ImmunoResearch Laboratories, Inc., West Grove, Pa.) or mouse Fc (Cat. No. 550826, BD Biosciences, San Jose, Calif.) and is conjugated to allophycocyanin, was then added to the cell mixture at a final concentration of 13.3 nM. After incubating for 20 minutes on ice, the cells were washed and resuspended in PBS containing 5% FBS, then sorted and analyzed on a flow cytometer (FACSCalibur, BD Biosciences, San Jose, Calif.) to determine relative binding by the candidate antibodies to the tested cell lines. Histograms of cells stained with anti-ASIC1 antibodies were compared with those of cells stained with secondary antibody alone. Percentage of ASIC1 signal over secondary antibody alone was calculated using FlowJo software (Tree Star, Ashland, Oreg.).

human ASIC1 [1] = biological target: T2, human ASIC1; assay: cell-based or functional assay
human ASIC1 [2] = biological target: T2, human ASIC1; assay: FACS titration, 3T3/hASIC1 cells
Protocol: as §1, with “([…]” for “(at final concentrations of 10 nM of purified antibodies or 3.3 nM for antibody supernatants for binding to 3T3/hASIC1 cells and 5 nM for binding to 3T3/mASIC1a”

human ASIC1 [3] = biological target: T2, human ASIC1; assay: cell-based or functional assay; remark: listed apart in the source
human ASIC1 [4] = biological target: T2, human ASIC1; assay: cell-based or functional assay; remark: listed apart in the source

binding result (mouse ASIC1a) | Current inhibition (%) at 100 nM antibody, Q-Patch, pH 6.0 (human ASIC1 [1]) [%] | EC50 (human ASIC1 [2]) [nM] | apparent IC50, human ASIC1 current, Q-Patch (human ASIC1 [3]) [nM] | FLIPR Dose Curve, pH 5.0 % Block (human ASIC1 [4]) [%] | FLIPR Dose Curve, pH 5.5 % Block (human ASIC1 [4]) [%] | FLIPR Dose Curve, pH 5.5 IC50 (human ASIC1 [4]) [nM] | calculated IC50, inhibition of human ASIC1 current, Port-a-Patch (human ASIC1 [3]) [nM] | Binder
binds | 72 | 1 | ≤ 10 |  |  |  |  | H4H6366P (antibody, human IgG4, V domains shown) VH: EVQLVESGGDLIQPGGSLRLSCIASGFTFRGYAMSWVRQAPGEGLDWVSGISSGGGNTYYADSVKGRFTISRDNSKNTLYLQMNSLRVEDTAVYYCAKDRGGVRDFYYGLDVWGQGTTVTVSS VL: DIQMTQSPSTLSASVGDRVTITCRASQSIYSWLAWYQQKPGKAPKLLIYKASSLESGVPSRFSGSGSGTDFTLTISSLQPDDFTTYYCQQYLSYSRTFGQGTKVEIK
binds | 100 | 0.55 | < 1 | 48 | 78 | 0.6 | 0.86 | H1M6718N (antibody, mouse IgG1, V domains shown) VH: EVQLLESGGGLVQPGGSLRLSCAASGFTFSSFAMSWVRQAPGKGLEWVSGISGSGGGTHYADSVKGRFTISRDNSKNMVYLQMNSLRAEDTAAYYCAKEAYKWQPWGQGTLVTVSS VL: DIQMTQSPSTLSASVGDRVIITCRASQRISSWLAWYQQKPGKAPNLLIYKASILESGVPSRFSGSGSGTEFTLTISSLQPDDFATYYCQQYNSYSYTFGQGTKLEIK
binds | 97 | 0.72 | < 1 |  |  |  |  | H1M7101N (antibody, mouse IgG1, V domains shown) VH: EVQLLASGGGLVQTGGSLRLSCAASGFTFSSFAMSWVRQAPGKGLEWVSGISGSGGSTYYADSVKGRFTISRDNSKNTLYLQMNSLRAEDTAAYYCAKEAYKWQPWGQGIRVTVSS VL: DIQMTQSPSTLSASVGDRVTITCRASQSISSWLAWYQQKPGKAPNLLIYKTSNLESGVPSRFSGSGSGTEFTLTISSLQPDDFATYYCQQYNSYSYTFGQGTKLEIK
